According to the supplement of paper PMC12042874:
± gives the uncertainty stated by the source.

Test: amyloid nucleation score (Sup35N fusion, yeast selection) (log enrichment); library NNK3; higher = more nucleation; inactive = no reads after selection
Procedure, shortened: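 After 24 hours of induction with 100 μM copper sulfate, psi-negative yeast expressing peptides of 20 random codons fused to Sup35N were grown for 7 days at 30°C on medium lacking adenine and uracil. Input and output plasmid inserts were sequenced with Illumina, and sequences with under 100 input reads were discarded. Scores for nucleation are the DiMSum log enrichment of output over input reads, centred on the mode score of non-aggregating sequences.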

Row | Substance | amyloid nucleation score
1 | TWILFFVN | 1.78 ± 0.062
2 | TWKHFFIALLRRSNY | inactive
3 | TWLMFIFNSRYL | 1.51 ± 0.074
4 | TWLSFIRLNMMPINTSTCYP | inactive
5 | TWRYRKMYYRSDVNHCLFEV | inactive
6 | TWTDCERRLDIVKEMLNYIQ | inactive
7 | TYFYAFALTVPYSWHSEDRM | 2.04 ± 0.054
8 | TYGTCVGQK | inactive
9 | TYHSCY | inactive
10 | TYIVAEANVRSVGDEQSMMN | inactive
11 | TYKVFL | inactive
12 | TYLLFGSTLGLSQWVYLDVE | inactive
13 | TYLLNGTILLNPCKLC | inactive
14 | TYLVNSDMMGDRIFGACRDV | inactive
15 | TYMSNNTMGEFFLNLRVNLY | 2.44 ± 0.068
16 | TYTSVGETS | inactive
17 | TYTYIGIKAFCDLYRSKMGV | inactive
18 | TYWVGWML | inactive
19 | TYYGCYLVGR | 0.01 ± 0.66
20 | VAAMYGILMMLMELVWSDAR | inactive
21 | VAFYVTHGAIVYFSMGCAGI | 1.63 ± 0.11
22 | VAIIAYQWSIPSMAGPVNRR | 0.652 ± 0.28
23 | VALLTYFWYGPIKGVAS | inactive
24 | VALWGSWRRPWDAVAFDRTG | inactive

Row | Substance | amyloid nucleation score
25 | VANIFVVISIVGVDTRLFIV | 0.519 ± 0.23
26 | VANYGQVQHWYRGYVEDEGL | inactive
27 | VAPLAILDRKSKSLVGNNMA | inactive
28 | VAQRELWEEAIRCRYEH | inactive
29 | VARELGLCYVWAGSRGVSRV | -0.323 ± 1.8
30 | VAWRLFQNVWVHTGSDGYTV | -0.601 ± 1.1
31 | VAYNRGSQCCR | inactive
32 | VCADIVLPQMDLPGSSGREK | inactive
33 | VCANLSWPFLSNTLLFVCLG | inactive
34 | VCAVSFGRWYG | inactive
35 | VCCSYY | 1.32 ± 0.11
36 | VCFRNAFFHCSQMRTCNRVI | 0.262 ± 0.74
37 | VCGASGCKWAVTNSRHDGNG | inactive
38 | VCNQS | inactive
39 | VCRRTGSKITFGQWKVYFSS | inactive
40 | VCSFDMRDLQKTE | inactive
41 | VCTPNRCLSTLSR | inactive
42 | VCVRKLELGDCLKCG | inactive
43 | VCVRYFGDIFYVLYTFVMRA | 0.051 ± 0.46
44 | VCWSHKCRVDVS | inactive
45 | VCYKPFTSVYLVCTYHLFKS | inactive
46 | VDEFFGRGVHWLTVRLGLGM | inactive
47 | VDLYV | inactive
48 | VDNIVVVCCFKDNCLSKG | 1.85 ± 0.09

Row | Substance | amyloid nucleation score
49 | VDNNHYQRKSKGFGVAGLIR | inactive
50 | VDSDHIIHSTVLISVLGELD | inactive
51 | VDTYHTFVVVLH | inactive
52 | VDVFK | inactive
53 | VDVVLGMSIG | inactive
54 | VEDGAGGP | inactive
55 | VEDLMF | inactive
56 | VEDWATILSYY | inactive
57 | VEFIEFMYDPSYYVSNQNST | inactive
58 | VEGRCPLNH | inactive
59 | VEHSFYSLVCHRTDLF | inactive
60 | VEIGCANSRWDLLGVVCCLG | 1.27 ± 0.17
61 | VELSNVFWGERYIKGLLTDL | inactive
62 | VENVDYFCDFGTISIL | 1.66 ± 0.087
63 | VFCLVYKKCLKSYCQYMVIG | inactive
64 | VFCSSDTAFPEGTTVSSRSR | inactive
65 | VFEVEPNLGIGYSAKACNVG | inactive
66 | VFFMNYGHVIVHFEKFFGGN | 2.6 ± 0.082
67 | VFFRYWV | 1.62 ± 0.073
68 | VFGPLYSSYDIRQ | inactive
69 | VFGPRRPMVNCSN | inactive
70 | VFHRQERMLTPCT | inactive
71 | VFKMACEWSALWWNLLHTYS | inactive
72 | VFLKSNSAVQLSFRFNYHNL | inactive

Row | Substance | amyloid nucleation score
73 | VFLLCSLILWRAQLQLVCSL | inactive
74 | VFNFPQSDGNRSYMDFMAIQ | inactive
75 | VFNIRHSSDPRLYLTYVMSS | 1.19 ± 0.12
76 | VFNRSCINFKRYGSA | inactive
77 | VFNYVIGPGDKFAD | inactive
78 | VFPLSAY | inactive
79 | VFPYFELCVFLPSYFREAET | inactive
80 | VFSEWYVFHGQEVSTIHCAH | inactive
81 | VFSGGVRETLNSS | inactive
82 | VFSGIL | inactive
83 | VFSMWFSGLTTSIYRSLED | inactive
84 | VFSNGSRDAWSFFNQKSNRF | 0.193 ± 0.21
85 | VFTDLCTYKTCTYVIPCTAE | inactive
86 | VFVSSKTISLSGSLMISPNL | 1.69 ± 0.086
87 | VFYLCNFWGCWTCSIAVIVS | 0.576 ± 0.17
88 | VGDLLCPIASLGSRRNLWCR | inactive
89 | VGESDKLHFAH | inactive
90 | VGFLWMQRVNEVDK | inactive
91 | VGGIRLRIE | inactive
92 | VGHFISYCNRIFSAKAIIVF | inactive
93 | VGKLLVGTWWHGSYRSMSKR | inactive
94 | VGLWYSDIISVFCLNLMRLV | inactive
95 | VGNYINVANMYSWGVIIRND | 2.39 ± 0.072
96 | VGRHAYRC | inactive

Row | Substance | amyloid nucleation score
97 | VGRSEIYPACPLHSFKMDKF | inactive
98 | VGSNSDSVCCSPVVAGFQWT | 1.07 ± 0.1
99 | VGYVFFGFPVLKYARQESLS | inactive
100 | VHFKRVEKG | inactive
101 | VHGPKNCWKCDFKER | inactive
102 | VHGVRV | inactive
103 | VHLGSFDFIFLNMSSTRSLG | inactive
104 | VHMNRSGSAALEFGMLWEYI | inactive
105 | VHRWGYQCSWVEQ | inactive
106 | VHSPWVNNLYQCWTYYFLLL | 0.162 ± 0.88
107 | VHTMEEVA | inactive
108 | VHYKVKGSLPFCCGYFNSLW | 1.67 ± 0.079
109 | VHYWCGTQVVA | inactive
110 | VIALDVNL | inactive
111 | VICKAPGRPGHLCCKCIAVH | inactive
112 | VIDFYVEPCLIYGAPPCWLH | 0.606 ± 0.38
113 | VIDWAYSPKPSDLTG | 1.09 ± 0.16
114 | VIFDLVVGCGAVL | inactive
115 | VIGHMIGMDY | inactive
116 | VIGTGN | inactive
117 | VIILMVIVLYNRVSFETFSV | inactive
118 | VIILTYVSMLTTAHINGWSG | 0.309 ± 0.29
119 | VILLSLAY | inactive
120 | VILMFDSCGGFDW | inactive

Row | Substance | amyloid nucleation score
121 | VIMGDINQVAQPGDLRRFRC | -0.423 ± 1.4
122 | VIRVLQPFDCGCILYSCLIS | inactive
123 | VISGVIVMWYAWMWAGYRVR | inactive
124 | VISIPHGSAIRTCIVITMSL | inactive
125 | VISVTRSYSHTYK | inactive
126 | VITVIFVSYYCIPVWYW | 1.81 ± 0.099
127 | VIVTVVSPTSMRNGDTRMQI | inactive
128 | VIVYLFICNADLYFYKMSDF | 1.72 ± 0.12
129 | VIWLGRRCTFLHKPTSRGQW | 0.021 ± 0.6
130 | VIYRSYLRIDSFIGRGGLII | 0.567 ± 0.26
131 | VKGMKCWCQVRSESGLVSNA | inactive
132 | VKLALRTAFVGSQVYRILRA | -0.076 ± 0.88
133 | VKLRPLCAVKIRRYLYVVRE | -0.054 ± 0.3
134 | VKLSL | inactive
135 | VKWKDVDLFGLC | inactive
136 | VKWWGAES | inactive
137 | VKYVNEPVSHSIDWIPSPFP | 0.559 ± 0.24
138 | VLFSFAMLFKACLACFISCV | inactive
139 | VLGYYAKGDRSSWSRGYSY | 0.194 ± 0.87
140 | VLKASNFV | inactive
141 | VLKDNF | inactive
142 | VLKFFLTAMVD | inactive
143 | VLLAIGWVGGIFCGIWAGSH | inactive
144 | VLLPAGRIR | inactive

Row | Substance | amyloid nucleation score
145 | VLLVLVI | inactive
146 | VLMISCTS | inactive
147 | VLMSYQVCV | inactive
148 | VLNSIGPYVMTKR | 0.139 ± 0.63
149 | VLPENIILNFIQMSDNRFLL | 1.8 ± 0.072
150 | VLQLDL | inactive
151 | VLRAGELLF | inactive
152 | VLRSNHFD | inactive
153 | VLSFLPCGLIPIISVALWCC | 1.17 ± 0.099
154 | VLTSYGRNRH | inactive
155 | VMFCFKRHLL | 0.922 ± 0.15
156 | VMGDSVRIAELQIWAEINGL | 1.07 ± 0.14
157 | VMHMWCHQGRVWFSTSGFLG | 0.35 ± 0.19
158 | VMNHLRRTNLVPTSAVNAYN | inactive
159 | VMQQYLYNLCCL | 2.83 ± 0.052
160 | VMRFHVLKVLACCVNGGFDL | 2.73 ± 0.072
161 | VMSCYAYYFTTRQDFPFLWD | inactive
162 | VMSGAKPARSLFLSTLQHIS | inactive
163 | VMSSMWLAGQTWLSYNCICD | 2.35 ± 0.075
164 | VMVRTNMCR | inactive
